The target in the assay is native OmpL1, 31-kDa outer membrane protein of Leptospira alstoni (Leptospira alstoni). In words: immunoelectron microscopy of intact L. alstoni, protein G-colloidal gold (control serum).

With “preimmune serum from the same rabbit as the anti-OmpL1 antiserum (control serum)”, the gold particles per twenty organisms (particles per twenty organisms) was 1.

Values taken from patent EP0693936B1.
